One series concerns MOLT4-GFP xenografts. The series can be described thus: Survival of NSG mice with MOLT4-GFP xenografts, SRB1 combined with chemotherapy agents. The format is in vivo. Conditions: for Median survival: NSG mice, MOLT4-GFP i.v., SRB1 or isotype 4 mg/kg i.p. x4 weekly, vincristine 0.6 mg/kg i.v. day 5, dexamethasone 50 μg/mouse/dose days 5-9; for # censored subjects / # deaths: same survival study, 10 animals/group.

The target of the next series is T1, CCR9 (Homo sapiens, UniProt P51686).
T1 sequence (P51686 1-369): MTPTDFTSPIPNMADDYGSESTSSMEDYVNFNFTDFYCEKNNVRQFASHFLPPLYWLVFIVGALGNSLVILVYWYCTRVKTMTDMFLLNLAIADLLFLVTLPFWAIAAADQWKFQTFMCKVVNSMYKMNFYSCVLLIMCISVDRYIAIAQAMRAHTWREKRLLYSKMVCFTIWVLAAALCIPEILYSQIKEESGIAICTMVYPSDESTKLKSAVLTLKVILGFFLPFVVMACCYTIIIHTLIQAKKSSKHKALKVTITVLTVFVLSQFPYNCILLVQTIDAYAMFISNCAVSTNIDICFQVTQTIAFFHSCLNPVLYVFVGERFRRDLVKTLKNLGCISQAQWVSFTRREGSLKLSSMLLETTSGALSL
The series can be described thus: CCR9 binding in the presence of CCL25, measured by flow cytometry. The source says: Therefore, like “91R” and “92R”, the “SRB1” is preferred for use in the treatment of a condition in which CCL25 concentration may be elevated, including in the treatment of certain cancers as described in detail herein.

The test system of a further series is CCR9+ lymphocyte. The series can be described thus: Antibody mediated complement-dependent cytotoxicity (CDC). It is filed as cell-based. The source says: The present inventors have, for example, observed antibody mediated complement-dependent cytotoxicity (CDC) utilizing anti-CCR9 antibodies such as “91R”, “92R” and “SRB1” described above.
In series [1] the target is T2, CCR9 (C-C chemokine receptor type 9) (human, UniProt P51686 1-369, limits assumed).
T2 construct: also called human chemokine receptor CCR9
T2 sequence (looked up): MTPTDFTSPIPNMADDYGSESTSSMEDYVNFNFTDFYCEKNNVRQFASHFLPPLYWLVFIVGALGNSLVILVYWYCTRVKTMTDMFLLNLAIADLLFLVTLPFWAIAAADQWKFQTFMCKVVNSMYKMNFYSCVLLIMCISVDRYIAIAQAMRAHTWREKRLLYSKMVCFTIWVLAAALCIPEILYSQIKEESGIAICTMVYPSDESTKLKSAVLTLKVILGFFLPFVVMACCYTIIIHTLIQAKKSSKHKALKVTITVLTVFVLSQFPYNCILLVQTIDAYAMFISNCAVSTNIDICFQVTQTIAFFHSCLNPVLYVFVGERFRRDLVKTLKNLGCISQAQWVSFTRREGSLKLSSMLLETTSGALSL
Kind of series: CCR9 binding in the presence of CCL25; no protocol given.

On to `CC[C@]1(O)C[C@H]2CN(CCc3c([nH]c4ccccc34)[C@@](C(=O)OC)(c3cc4c(cc3OC)N(C=O)[C@H]3[C@@](O)(C(=O)OC)[C@H](OC(C)=O)[C@]5(CC)C=CCN6CC[C@]43[C@@H]65)C2)C1` [VX, vincristine], for which, in the series on MOLT4-GFP xenografts, the “Median survival” value worked out at 67.9 days, the “# censored subjects” value turned out to be 10 and the “# deaths” value was found to be 10.
In the case of `C[C@@H]1C[C@H]2[C@@H]3CCC4=CC(=O)C=C[C@]4(C)[C@@]3(F)[C@@H](O)C[C@]2(C)[C@@]1(O)C(=O)CO` [DX, dexamethasone], in the series with MOLT4-GFP xenografts, the “Median survival” value was found to be 47.7 days, the “# censored subjects” value came to 10 and the “# deaths” value stood at 10.

B1: SRB1 anti-CCR9 antibody (antibody, V domains shown)
VH: EVQLVESGGGLVKPGGSLRLSCAASGFTFSKFWMNWVRQAPGKGLEWVGEIRLKSNNYATHYAESVKGRFTISRDDSKNTLYLQMNSLKTEDTAVYYCTSDGWFAYWGQGTLVTVSS
VL: DVQMTQSPSSLSASVGDRVTITCRSSQSLVHSNGNTYLNWYQQKPGKAPKLLIYKVSNRFSGVPSRFSGSGSGTDFTLTISSLQPEDFATYYCSQSTHFPRTFGGGTKVEIK
notes: also called CCR9-targeted antibody (SRB1)
With B1, in the series on MOLT4-GFP xenografts, the “Median survival” value stood at 66.2 days, the “# censored subjects” value came to 10 and the “# deaths” value worked out at 10. In addition, the “survival, given as IC50” value in the series with MOLT4-GFP xenografts (SRB1 at 4 mg/kg vs Control (48 days)) amounted to 70 days. The “CCR9 binding in the presence of the ligand CCL25” value in the series with CCR9 is “exhibit CCR9 binding in the presence of CCL25”. Moreover, in the series with CCR9+ lymphocyte, the “complement-dependent cytotoxicity (CDC)” value is reported as “observed”. For the same molecule, the binding result in series [1] is listed as “binds”.
